Data reported in the DeepSol protein solubility set.

test: soluble on expression in E. coli; label from the status in PepcDB or PDB records

Soluble on expression in E. coli, soluble:
MSLKIGKIVSVNFNQFRVKISSEIRGNSVNLAGTVYYFGNIGSYLKTTNSVGEQLICEVMSIFDSDTKLDSAAYDFDSNRELLLKPIGTITRDDRFNLGVGIFPGIYSEVNVVTFEDMELILQTGKDKELSKAIHQSFFLGESKNLINYPIDISINSFFNIHSAVLGNSGSGKSNTIAHIIQEIHKKKNNSAIGSRILIFDVNGEYKNAFTGHEISPYIKVRLLKPNIEATEDGVEPFYLPHFLMNIDEWSSFLMATDATQRPFWDKVLQESYKFYMIATHEGDDRQKLINYLRFKICNLIHILQAQGDSDTAIITTAQGILYGILTLIEMDDDLQRACQQEGVLQDLHDLNASCTIDWGRNDGKLMRAVELVENRINKDTLREVMDYRASGEEYFNYEFLKQAANLTLLEEDARGNGRVREYTSTMMTRLDFFLDNPDCAFMRKSPVGATNIDQYLDWLWQSDKTVPEKTNMVIIDTSELSKDALETLTSVTSRLHFTSRKKLKGSARREKPIHLVLDEAHRYIKKDSKYLLRENIFEQIAREGRKYALYLLVSSQRPSELSETVLSQCSNFIIHRIQNEIDMKYVYAILPYFSDDFANKIKQSVPGEALIFGNCVSMPLHVRVKQAYPEPNSENCKVHEEWFKEGHHHHHH
MGSSHHHHHHSSGLVPRGSHMGVKSLVPQELIEKIKLISPGTELRKALDDIINANFGALIFLVDDPKKYEDVIQGGFWLDTDFSAEKLYELSKMDGAIVLSEDITKIYYANVHLVPDPTIPTGETGTRHRTAERLAKQTGKVVIAVSRRRNIISLYYKNYKYVVNQVDFLISKVTQAISTLEKYKDNFNKLLSELEVLELENRVTLADVVRTLAKGFELLRIVEEIRPYIVELGEEGRLARMQLRELTEDVDDLLVLLIMDYSSEEVEEETAQNILQDFITRREPSPISISRVLGYDVQQAAQLDDVLVSARGYRLLKTVARIPLSIGYNVVRMFKTLDQISKASVEDLKKVEGIGEKRARAISESISSLKHRKTSE
MDNLVWDGIPDIRTLDQTIRKHAHPLNLIVCLPDNQIPDFQTAQDASDSECRLKHRLDQATQCLQFDSINLIEHILPDVRFWLVPPSRTRRLHEHFHHISWQTEAIPQTESKSDKPWFALPQTSERKKPEHVLVIGAGIAGASTAHALASHGISVTVLEARKAAQAASGNRQGLLYAKISPHDTGQTELLLAGYGYTKRLLGHILPDSDTWGGNGIIHLNYSRTEQQRNHELGLQKHHNHLYRSITSAEAEKIAGIPLNTPYAEPLCGLYWQHGVWLNPPAFVRTLLSHPLIELYENTTLTGISHDGEKWIASTPNGTFTATHIIYCTGAHSPCLPETNLAALPLRQIRGQTGLTPSTPFSEQLRCAVSGESYISPSWHGLHCYGASFIPNSSNTGWNEAEEASNRQALAHLNPALAESLFAANPNPQKHQGHAAIRCDSPDHLPVVGALGDIAAMRQTYAKLALDKNYRIDTTCPYLPNAYTNTAHGTRGLATAPICAAAVAAEILGLPHLFSQRLRHALHPNRTVIRAIVRRQNLIPLEHHHHHH
MTEVIGIKFEENGAVEYVVPDKNYTKGDFVVVLEKKDKRLAQVVMENTVFPEVSLPVDLNRVEGLASKRDFARYDENLLKAEQSMGVVADLIAQNQLDMKVVDIVFPLNSSYVLISFVAEKRVDFRQLLEDLAAYFKTRIELRQISSREESKIYGGLGPCGRALCCSSFLGEFPPVSIKMAKNQSLSLNSGKMNGVCGRLMCCLSYEDDFYRDSKASYPDLGEEIETKEGRGQVIAIDVIAGTVKVMFEKGGAPLTYGVEEVQLNGKAAAALEHHHHHH

Soluble on expression in E. coli, not soluble:
MKRFLIITILALSVFSLALTLDDAYRLANITQRKLIMMFSSPTCYYCNLFKKEVFPKEDFQEILIPNFVFVELYATDEKTTLFAKEVLGEESVSYRDLFAGFGVRGTPTFFFFKGKEGLGYLPGYVDKDNFIKILKYVAQELKEDFQTYLKKDDPFVGEPLIIEIFKEDADFVLEKDENAVKVDTVPNEVRRDRIYVTDSPDVAKTLQEKGALRVLLAK
GPGSMVSRDSRYIHRRWYLEDATLTIQQPKLELLVDFDDPSSFAFPANLPPTLGMRRAAAVATATGGLSGVMGLGSEGNLLADWREIGIPPFTEE
MPTVPFPILRLPNAILQRSLQQMSPIGLISLSVLSNNMKQIVTMPNNKSRFDGRISTTLPITLHLNVDRNSRHHYVEYAFQFNQSVLRIQDIRGQEPATLTKPGFTDKLWIEHVAEVLFQNKGVILSCDAPFRTYIKELLKNINVTLIAIRSSGFEVWKFFELFPSLEKVTFTEGPIPLSVLSRNLDGLKVNTKDVPLDDALTSNSLSFAMHRNSFTMKEINLFIKQWIRGCNPRLEMFQILFNDIERHLVLENVIFKGINYIEKRNRIVQCQEREEYRIERFDGTEALVWFNPNRFPFLEMTVMMNDDDDKLLV
